For orientation: Kd means a measure of binding affinity in units of concentration. The term koff denotes the first-order rate constant of dissociation. A higher koff goes with a short-lived complex. A word on the kon: it is the rate constant with which the complex forms.

For assay [1], the target named is T1, recombinant α5β1 integrin (immobilized, ELISA) (UniProt P08648 42-995; P05556 21-728).
T1 construct: also called a5b1 integrin
The experiment in a line: ELISA, DV on immobilized recombinant α5β1 integrin.

In assay [2] the target is A5 domain (immobilized acceptor on the IAsys biosensor) (UniProt P08648). Kind of assay: optical biosensor (IAsys), A5 immobilized, free DV 8.0×10^-8 to 4.0×10^-7 M, global fit.
Assay [3] has the same target. Kind of assay: optical biosensor (IAsys), A5 immobilized, Kd = koff/kon.

T1 sequence (P08648 42-995, chain 1 of 2): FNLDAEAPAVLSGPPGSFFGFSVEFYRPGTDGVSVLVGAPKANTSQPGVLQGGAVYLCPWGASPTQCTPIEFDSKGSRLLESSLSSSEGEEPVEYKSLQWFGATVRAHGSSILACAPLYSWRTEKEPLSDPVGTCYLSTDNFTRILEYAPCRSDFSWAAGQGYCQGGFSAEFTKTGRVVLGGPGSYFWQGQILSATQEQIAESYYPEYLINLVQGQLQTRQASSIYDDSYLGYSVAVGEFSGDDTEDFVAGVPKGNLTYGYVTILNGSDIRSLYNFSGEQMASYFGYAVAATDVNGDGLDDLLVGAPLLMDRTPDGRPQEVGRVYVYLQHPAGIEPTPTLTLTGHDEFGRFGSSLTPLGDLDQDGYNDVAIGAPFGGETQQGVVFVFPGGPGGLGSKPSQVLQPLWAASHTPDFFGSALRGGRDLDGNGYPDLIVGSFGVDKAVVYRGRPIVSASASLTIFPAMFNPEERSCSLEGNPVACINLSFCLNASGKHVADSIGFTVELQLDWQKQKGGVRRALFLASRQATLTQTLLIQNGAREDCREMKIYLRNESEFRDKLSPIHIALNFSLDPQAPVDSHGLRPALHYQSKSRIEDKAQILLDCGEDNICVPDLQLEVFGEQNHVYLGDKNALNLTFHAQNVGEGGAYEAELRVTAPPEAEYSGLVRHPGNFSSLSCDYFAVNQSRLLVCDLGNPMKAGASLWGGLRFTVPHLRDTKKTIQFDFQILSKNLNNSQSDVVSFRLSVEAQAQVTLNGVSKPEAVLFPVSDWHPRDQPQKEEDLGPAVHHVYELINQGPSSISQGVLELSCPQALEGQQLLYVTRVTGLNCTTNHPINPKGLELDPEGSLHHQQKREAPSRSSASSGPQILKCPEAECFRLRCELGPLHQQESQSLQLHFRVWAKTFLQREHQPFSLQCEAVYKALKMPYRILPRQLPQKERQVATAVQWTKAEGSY
T1 sequence (P05556 21-728, chain 2 of 2): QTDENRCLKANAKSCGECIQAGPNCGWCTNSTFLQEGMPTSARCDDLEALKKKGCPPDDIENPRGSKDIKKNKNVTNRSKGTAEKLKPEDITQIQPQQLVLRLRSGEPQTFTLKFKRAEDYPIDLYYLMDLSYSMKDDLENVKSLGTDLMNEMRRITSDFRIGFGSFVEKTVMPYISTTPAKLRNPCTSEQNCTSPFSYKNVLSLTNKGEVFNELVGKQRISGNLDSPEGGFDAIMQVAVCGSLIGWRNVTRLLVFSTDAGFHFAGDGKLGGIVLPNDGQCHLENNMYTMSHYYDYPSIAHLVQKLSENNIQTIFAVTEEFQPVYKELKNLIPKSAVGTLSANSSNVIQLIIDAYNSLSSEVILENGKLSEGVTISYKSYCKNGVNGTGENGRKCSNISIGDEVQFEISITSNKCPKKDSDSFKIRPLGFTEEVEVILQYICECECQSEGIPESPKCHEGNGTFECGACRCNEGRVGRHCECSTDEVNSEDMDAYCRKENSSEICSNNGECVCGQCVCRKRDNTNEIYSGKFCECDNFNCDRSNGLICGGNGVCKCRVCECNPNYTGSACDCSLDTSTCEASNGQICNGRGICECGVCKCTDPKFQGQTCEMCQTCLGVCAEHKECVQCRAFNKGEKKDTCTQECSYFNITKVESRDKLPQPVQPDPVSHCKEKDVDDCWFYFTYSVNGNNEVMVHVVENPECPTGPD

B1: perlecan Domain V (recombinant, C-terminal 6×His tag) (ligand)
chain: EIKITFRPDSADGMLLYNGQKRVPGSPTNLANRQPDFISFGLVGGRPEFRFDAGSGMATIRHPTPLALGHFHTVTLLRSLTQGSLIVGDLAPVNGTSQGKFQGLDLNEELYLGGYPDYGAIPKAGLSSGFIGCVRELRIQGEEIVFHDLNLTAHGISHCPTCRDRPCQNGGQCHDSESSSYVCVCPAGFTGSRCEHSQALHCHPEACGPDATCVNRPDGRGYTCRCHLGRSGLRCEEGVTVTTPSLSGAGSYLALPALTNTHHELRLDVEFKPLAPDGVLLFSGGKSGPVEDFVSLAMVGGHLEFRYELGSGLAVLRSAEPLALGRWHRVSAERLNKDGSLRVNGGRPVLRSSPGKSQGLNLHTLLYLGGVEPSVPLSPATNMSAHFRGCVGEVSVNGKRLDLTYSFLGSQGIGQCYDSSPCERQPCQHGATCMPAGEYEFQCLCRDGFKGDLCEHEENPCQLREPCLHGGTCQGTRCLCLPGFSGPRCQQGSGHGIAESDWHLEGSGGNDAPGQYGAYFHDDGFLAFPGHVFSRSLPEVPETIELEVRTSTASGLLLWQGVEVGEAGQGKDFISLGLQDGHLVFRYQLGSGEARLVSEDPINDGEWHRVTALREGRRGSIQVDGEELVSGRSPGPNVAVNAKGSVYIGGAPDVATLTGGRFSSGITGCVKNLVLHSARPGAPPPQPLDLQHRAQAGANTRPCPSHHHHHH
notes: domain: domain V; Secreted from transfected 293FT cells and purified on Ni beads; also called DV; endorepellin
Consider B1, for which, in assay [1], the Kd is about 30 nM. For the same molecule, in assay [2], the koff turned out to be 0.72 s⁻¹ and the kon was found to be 3.8e+06 M⁻¹ s⁻¹. In addition, in assay [3], the Kd was 160 nM.

The values above are taken from patent US20100168025A1 (TEXAS A AND M UNIVERSITY SYSTEM, published 2010).
